Experimental data as given in US8624002B2, “Prostaglandin E2 binding proteins and uses thereof” (AbbVie, Inc., priority 2008, dated 2014).
“And” between values parts separate entries of the source, which are not always exact repeats. Equal values may be shown once.

How the values were obtained:
[1] = Pharmacokinetics of 2B5.8.0 in Sprague-Dawley rats; format: in vivo; conditions: rat, IV 4 mg/kg
Experimental: Pharmacokinetic studies with mouse mAb 2B5.8.0 were carried out in Sprague Dawley rats and Balb/C mice. Male and female rats and mice were dosed intravenously or intraperitoneally (mice only) with a single dose of 4 mg/kg 2B5.8.0 and serum samples were analyzed using antigen capture based chemiluminescent MSD (Meso Scale Discovery) method (Meso Scale Discovery, Gaithersburg, Md.). Pharmacokinetic parameters were calculated by non-compartmental analysis using WinNonlin.
The following MSD assay was used to measure antibody concentration in rat and mouse serum. MSD streptavidin plates (Meso Scale Discovery, Gaithersburg, Md.) were washed with phosphate buffered saline containing 0.05% Tween-20 (Sigma, St. Louis, Mo.). Plates were blocked with 250 μL/well blocking solution (MSD Block, Meso Scale Discovery, diluted to 3% final concentration in PBS) for 1 hour, covered, with shaking (600 rpm) at room temperature. After washing, 70 μL of biotinylated PGE2 (Prostoglandin E2-biotinamide, Cayman Chemical, Ann Arbor, Mich., cat# 10006987, lot# 190831-191028, 0.01 ug/mL in assay buffer) was added to each well. The plates were covered and incubated with shaking (600 rpm) for 1 hour at room temperature
Prior to analysis, rat and mouse serum samples were thawed on ice, mixed gently, and centrifuged at 14,000 rpm for 3 minutes at 4° C. in an eppendorf centrifuge. Standard curve and control samples were prepared in rat and mouse serum. A Tecan Evo automated liquid handling station was used to dilute standard curve, high, medium, and low controls, and serum samples in assay buffer, keeping 1% final serum concentration constant. MSD plates were washed again and study samples, standard curve samples and blanks, as well as high, medium, and low controls were added (70 μL/well). The plates were covered, and incubated for 1 hour with shaking (600 rpm) at room temperature.
After incubation, the MSD plates were washed, and 70 μL of sulfo-tagged goat anti-mouse IgG (Meso Scale Discovery; diluted to 1 ug/mL in assay buffer) was added to each well. The MSD plates were covered, and incubated with shaking (600 rpm) for 1 hour at room temperature, then the plates were washed and developed with 2× Read Buffer (Meso Scale Discovery). Chemilumeniscence was measured within ten minutes on the MSD Sector Imager 6000.
Standard curves were analyzed using four-parameter logistic fit and sample concentrations were calculated by XLfit4 software version 2.2.1 Build 16, ([…].). Pharmacokinetic parameters were calculated for each animal using Winonlin software version 5.0.1 (Pharsight Corporation, Mountain View, Calif.) by noncompartmental analysis.
Surgically altered jugular vein cannulated, JVC) and regular male and female Sprague-Dawley Rats (approximately seven weeks old, weighing 240-390 grams) were purchased from Charles River Laboratories (Wilmington, Mass.). The animals were housed in rooms maintained at constant temperature and humidity under 12 hours light/dark cycle, fed with normal rodent chow and were allowed food and water ad libitum. Hydration and clinical conditions of the animals were monitored daily.
Male and female Balb/c mice (weighing approximately 0.025 kg) were purchased from Charles River Laboratories (Wilmington, Mass.). The animals were allowed food and water ad libitum. Blood samples were collected (0.2 mL from the rats via the tail vein and by cardiac puncture from the mice) at various timepoints (5 mice at each timepoint) allowed to clot for 30 minutes at room temperature, centrifuged for 3 minutes at 13,200 rpm, the serum transferred to eppendorf tubes and stored frozen at −80° C.

[2] = Biotin-PGE2 competition ELISA (prostaglandin selectivity); format: binding
Experimental: Competition enzyme linked immunosorbent assays were performed to determine prostaglandin binding specificity for antibodies that bind prostaglandin E2, according to at least one of the two following methods.
ELISA plates (Costar 3369, Corning, N.Y.) were coated with 50 μl/well of anti-host Fc IgG (Sigma, St. Louis, Mo.) at 2 μg/ml in PBS (Invitrogen, Carlsbad, Calif.). Following an overnight incubation at 4° C., the plate was blocked with 200 μl Superblock (Pierce #37535, Rockford, Ill.). The IgG samples were diluted to 6 μg/ml in Assay Buffer (10% Superblock in PBS containing 0.05% Surfactamps (Pierce #37535, Rockford, Ill.). The PGE2-biotinamide was diluted to 3 nM in Assay Buffer. A titration curve in Assay Buffer was prepared for the prostaglandins PGA2 (Cayman Chemicals, Ann Arbor, Mich.), PGD2 (Cayman Chemicals, Ann Arbor, Mich.) and PGE2 (Cayman Chemicals, Ann Arbor, Mich.) starting at 300 nM by a 1:10 serial dilution. The reagents were added to tubes at a volume of 50 μl each/tube and preincubated for 1 hour at room temperature. Following the preincubation, the mix was transferred to the blocked plates and allowed to incubate for 1 hour at room temperature. Next, the plates were washed four times with Tween 20-Tris buffered solution (TTBS). Streptavidin polyhrp40 in Assay Buffer (Fitzgerald Industries, Concord, Mass.) at a 1:5000 dilution was then added to the wells and incubated for 45 minutes at room temperature. A final wash step was performed and the plates were developed using a single step TMB system (Sigma #T8665, Sigma, St. Louis, Mo.) and 100 μl/well 2N H2SO4. Plates were read at 450 nm on a Molecular Devices Spectramax plate reader (Sunnyvale, Calif.). […] IC50 number was determined using GraphPad Prism 5 (GraphPad Software, La Jolla, Calif.). The cross reactivity index was then calculated by IC50 of PGE2/IC50 of other prostaglandin(s).

B1: 2B5-8.0: recombinant anti-PGE2 antibody from solved 2B5 sequence; VH SEQ ID NO 42, VL SEQ ID NO 43 (antibody, V domains shown)
VH: QVQLQQSGPELVRPGSSVKISCKASGYTFTKYWLGWVKQRPGHGLEWIGDIYPGYDYTHYNEKFKDKATLTVDTSSSTAYMQLSSLTSEDSAIYYCARSDGSSTYWGQGTLVTVSA
VL: DVLMTQTPLSLPVSLGDQASISCTSSQNIVHSNGNTYLEWYLQRPGQSPKLLIYKVSNRFSGVPDRFSGSGSGTVFTLKISRVEAEDLGVYYCFQVSHVPYTFGGGTKLEIKR
- AUC0-∞ ([1]; female): 12000 ± 4600 µg·h/mL
- CL ([1]; female): 8.88 ± 3.12 mL/day/kg
- MRT ([1]; female): 259 ± 84 h
- Vss ([1]; female): 0.088 ± 0.0062 L/kg
- Vz ([1]; female): 0.101 ± 0.0131 L/kg
- T½ ([1]; female, 4 mg/kg): 214 h and 204 ± 52.8 h
- AUC0-∞ ([1]; male): 9900 ± 700 µg·h/mL
- CL ([1]; male): 9.84 ± 0.72 mL/day/kg
- MRT ([1]; male): 302 ± 38.4 h
- T½ ([1]; male): 218 h
- Vss ([1]; male): 0.122 ± 0.0185 L/kg
- Vz ([1]; male): 0.127 ± 0.0189 L/kg
- PG Selectivity in Biotin-PGE2 Competition ELISA (CRI %) PGA2 ([2]; PGA2): 0.21%
- PG Selectivity in Biotin-PGE2 Competition ELISA (CRI %) PGD2 ([2]; PGD2): <0.01%
- PG Selectivity in Biotin-PGE2 Competition ELISA (CRI %) PGE1 ([2]; PGE1): 28%
